This experiment concerns the target human IL-21 receptor (human, UniProt Q9HBE5 20-232, limits assumed). As to the kind of experiment: KD at 37 C; method and format not stated.

The Kd is the constant that tells how readily two partners part at equilibrium. Low readings indicate higher affinity, high ones lower affinity.

Sequence of human IL-21 receptor (Q9HBE5 20-232 limits assumed): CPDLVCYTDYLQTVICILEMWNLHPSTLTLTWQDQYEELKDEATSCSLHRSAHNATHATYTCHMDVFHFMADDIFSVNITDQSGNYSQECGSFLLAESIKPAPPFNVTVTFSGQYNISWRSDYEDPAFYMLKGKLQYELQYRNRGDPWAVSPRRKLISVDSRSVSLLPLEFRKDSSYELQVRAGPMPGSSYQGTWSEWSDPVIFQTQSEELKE

B1: IL-21 v31.23 (ligand)
chain: QGQDRHMIRMRQLIDIVDQLKNYVNDLVPEFLPAPEDVETNCEWSAFSCFQKAQLKSANTGNNERIINVSIKKLKQKPPGGEGGGGGGGEGGCPSCDSYEKKPPKEFLERFKSLLQKMIHQHLSSRTHGSEDS
notes: also called hIL21 v31.23
Consider B1, for which the Kd came to 6.06 µM. That is a single-digit micromolar value.

B2: IL-21 v31.51 (ligand)
chain: QGQDRHMIGMRQLIDIVDQLKNYVNDLVPEFLPAPEDVETNCEWSAFSCFQKAQLKSANTGNNERIINVSIKKLKRKPPGGEGGGGGGGEGGCPSCDSYEKKPPKEFLERFKSLLQKMIHQHLSSRTHGSEDS
notes: also called hIL21 v31.51
As for B2, binding was characterised by a dissociation constant (Kd) of 7.73 µM.

Source of the values: patent US20250339519A1 (ASHER BIOTHERAPEUTICS, published 2025).
